Patent US20130017578
Like-named read-outs stand apart in the source and are kept apart here.

Experiments:
[1] = biological target: Int-h/218 (parental lambda integrase mutant) Int-h/218 substitutions (not given) (Bacteriophage lambda) (UniProt P03700); settings: attB x attP recombination, real-time PCR; reference activity
[2] = biological target: Int1 (Int-h/218 mutein) Int-h/218 substitutions (not given),I43A,H61R (Bacteriophage lambda) (UniProt P03700); experiment: cell_activity; settings: attB x attP GFP reporter in HEK293, relative to Int-h/218
[3] = biological target: Int5 (Int-h/218 mutein) Int-h/218 substitutions (not given),I43A (Bacteriophage lambda) (UniProt P03700); experiment: cell_activity; settings: attB x attP GFP reporter in HEK293, relative to Int-h/218
[4] = biological target: Int1 (Int-h/218 mutein) Int-h/218 substitutions (not given),I43A,H61R (Bacteriophage lambda) (UniProt P03700); settings: attH x attPH, relative to Int-h/218 on attB x attP
[5] = biological target: Int5 (Int-h/218 mutein) Int-h/218 substitutions (not given),I43A (Bacteriophage lambda) (UniProt P03700); settings: attH x attPH, relative to Int-h/218 on attB x attP

Sequence: CTGCTTTTTTATACTAACTTG (double strand) [attB core]
- binding signal [1]: 100%
- binding signal [2]: 50%
- binding signal [3]: 65%

Sequence: CTGCTTTCTTATACCAAGTGG (double strand) [attH]
- binding signal ([4]; 7-fold over Int-h/218 when translated in vitro (FIG. 4A)): 140%
- binding signal ([5]; 9-fold over Int-h/218 on genomic attH (FIG. 4D)): 100%

Sequence: CAGCTTTTTTATACTAAGTTG (double strand) [attP core]
- binding signal [1]: 100%
- binding signal ([2]; attH x attP <1% activity): 50%
- binding signal ([3]; attH x attP <1% activity): 65%

Sequence: CAGCTTTCTTATACCAAGTTG (double strand) [attPH]
- binding signal [4]: 140%
- binding signal [5]: 100%
